From US11866760B2, “Microorganisms for the production of insect pheromones and related compounds” (Provivi, Inc., priority 2017, dated 2024)

Columns and labels:
palmitic acid [1] = assay: in vivo bioconversion assay of desaturases in C. tropicalis SPV053; type: cell-based, Candida tropicalis
Experimental: Functional expression of the heterologous desaturases was characterized by a series of in vivo bioconversion experiments. C. tropicalis SPV053 derived stains expressing insect desaturases were cultured in rich (YPD) or defined (CM glucose) media supplemented with ethanol (for induction) and saturated acid substrates (palmitic acid, methyl palmitate, methyl myristate). Small scale (2 ml) cultures were cultivated for a total of 72 hours in 24 deep well plates with substrate added after the initial 24 hours.
Positive isolates were re-patched onto YPD+300 μg/ml Zeocin and grown overnight and then stored at 4° C. Strains were inoculated from patch plates into 2 ml of YPD in 24 deep well plates (square well, pyramid bottom). Three positive clones were inoculated for each desaturase variant and the mCherry expressing control strain. Deep well plates were incubated at 30° C., 1000 rpm, and 80% humidity in the Infors HT Multitron Pro plate shaker for 24 hrs. After 24 hrs of incubation, cultures were split into equal 1 ml volumes to make two sets of identical plates. Both sets of plates were pelleted by centrifugation at 500×g. One set of plates was resuspended in 2 ml of YPD+0.3% (v/v) ethanol and the second set was resuspended in 2 ml of CM glucose+0.3% ethanol. Ethanol was added at this stage to induce recombinant enzyme expression from the ICL promoter. Cultures were incubated for another 24 hours under the same conditions before 300 mg/L palmitic acid was added to cultures from a 90 g/L stock solution in ethanol. The result was the addition of a fresh 0.3% ethanol in conjunction with the palmitic acid. A subset of strains was also cultured without palmitic acid addition. These cultures had 0.3% ethanol added instead. All cultures were incubated for an additional 24 hrs before a final addition of 0.3% ethanol. After another 24 hr period of incubation, 1.5 ml of each culture was harvested in 1.7 ml microcentrifuge tubes and pelleted. Supernatant was saved in fresh tubes and pellets were processed as described below. A subset of supernatant samples was also extracted to look for free acid in the extracellular medium.
The mCherry control and confirmed positive variants were rescreened using both palmitic acid and methyl palmitate as substrates. The culturing was conducted as described above with equimolar (1.17 mM) amounts of substrate added from ethanol stock solutions (methyl palmitate 94 g/L stock, 313 mg/L final concentration). The same protocol was also repeated with the full panel of strains using an 84 g/L stock of methyl myristate (C14:0). The final concentration of substrate was again 1.17 mM.
The in vivo bioconversion assay was scaled up for confirmation of (Z)-11-hexadecenoic acid synthesis. 2 ml YPD seed cultures of strains SPV0302, SPV0303, and SPV0304 (mCherry), […], SPV0305, and SPV0306 (A. transitella Z11 desaturase), and SPV0307, SPV0308, and SPV0309 (H. zea Z11 desaturase) were grown overnight at 30° C., 1000 rpm, 80% humidity in the Infors HT Multitron plate shaker. 200 μl of overnight culture from each of the three clonal isolates was pooled and inoculated into a single 125 ml baffled flask containing 20 ml YPD. The resulting three flasks were grown for 24 hrs at 30° C. and 250 rpm (Infors Flask shaker). Cultures were pelleted by centrifugation at 500×g and resuspended in 20 ml of YPD+0.3% (v/v) ethanol and returned to 125 ml baffled shake flasks. Cultures were incubated for an additional 24 hours before addition of 300 mg/L palmitic acid in a 90 g/L stock in ethanol (221 μl per flask). After 24 hours of incubation another 0.3% (v/v) ethanol (221 μl) was added to each flask for sustained induction. Flasks were incubated for an additional 24 hours before cells were harvested for FAME analysis and DMDS derivatization.
Total lipid composition as well as the (Z)-11-hexadecenoic acid quantification was based on modified procedures by Moss et al. (1982) and Yousuf et al (2010). […]

palmitic acid [2] = assay: in vivo bioconversion of palmitic acid into Z11-hexadecenoic acid in Y. lipolytica SPV140 and SPV300; type: cell-based, Yarrowia lipolytica; conditions: from ~500 mg/L palmitic acid substrate, 24 well plate assay
Experimental: Functional activity was assessed by a modification of the protocol used for transmembrane desaturase expression in C. viswanathii SPV053 (See Example 6). Briefly, Y. lipolytica SPV140 and SPV300 derived stains expressing insect desaturases were cultured in rich (YPD) to generate biomass. Using the YPD generated biomass, small scale (2 ml) cultures were cultivated with palmitic acid for a total of 48 hours in 24 deep well plates (See Materials & Methods for detail).
Positive isolates were re-patched onto YPD, grown overnight, and then stored at 4° C. Strains were inoculated from patch plates into 2 ml of YPD in 24 deep well plates (square well, pyramid bottom). Three positive clones were inoculated for each desaturase variant. Three isolates of pPV101 in SPV140 and the parent SPV300 were used as negative controls. Deep well plates were incubated at 28° C. and 250 rpm in the Infors Multitron refrigerated flask shaker for 24 hrs. […] Final cell densities were measured with the Tecan Infinite 200pro plate reader. […]
Total lipid composition as well as the (Z)-11-hexadecenoic acid quantification was based on modified procedures by Moss et al. (1982) and Yousuf et al (2010). […] For the analysis of lipids and the quantification of fatty acids 50 μL of 0.2 M TMSH (trimethylsulfonium hydroxide in methanol) was added and the sample analyzed by GC-FID.

S. cerevisiae ΔOLE1 = assay: ΔOLE1 growth complementation assay without UFA; type: cell-based, Saccharomyces cerevisiae
Text: S. cerevisiae ΔOLE1 (MATA OLE1::LEU2 ura3-52 his4) was used as an expression host. A synthetic expression cassette termed pOLE1 (FIG. 10, SEQ ID NO: 4) which comprises the OLE1 promoter region (SEQ ID NOs: 5 and 6), nucleotides encoding for 27 N-terminal amino acids of the OLE1 leader sequence (SEQ ID NO: 7), and a VPS13 terminator sequence (SEQ ID NO: 8) was created, and cloned into pESC-URA vector in between SacI and EcoRI sites. To test the functionality of the pOLE1 cassette, Dasher GFP synthon was inserted in between SpeI and NotI sites to create pOLE1-GFP plasmid. Competent ΔOLE1 was transformed with pOLE1-GFP, and plated on CM-Ura glucose agar plate (Teknova) containing UFA (20 mm CM-URA glucose agar plate was coated with 100 μL CM-Ura glucose medium containing 1% tergitol, and 3 μL palmitoleic acid). […] Validation of ΔOLE1 complementation was performed by restoring OLE1 activity. Specifically, native S. cerevisiae OLE1 synthon was inserted into pOLE1 cassette devoid of the leader sequence to create pOLE1-OLE1 plasmid. After transformation of ΔOLE1, and selection on CM-Ura glucose agar containing UFA, single colonies were patched onto YPD and CM-Ura glucose without UFA. After incubation at 30° C. for 5 days, growth was observed (FIG. 11A-FIG. 11E). As expected, Dasher GFP expression could not complement ΔOLE1 growth without UFA (FIG. 11A-FIG. 11E). DNA sequences which encode for desaturase variants were synthesized (to include nucleotide changes which remove restriction sites used for cloning purposes), and cloned into pOLE1 using SpeI-NotI sites (Genscript, SEQ ID NOs: 9-13). Complementation assay of ΔOLE1 with insect desaturases were performed in the same way as with OLE1 desaturase.

[3] = SPV053, supplementation not stated
[4] = SPV053, with palmitic acid supplementation

B1: H. zea desaturase: Helicoverpa zea Z11 desaturase (AAF81787), SEQ ID NO: 54 (protein, listed as Helicoverpa zea)
chain: MAQSYQSTTVLSEEKELTLQHLVPQASPRKYQIVYPNLITFGYWHIAGLYGLYLCFTSAKWATILFSYILFVLAEIGITAGAHRLWAHKTYKAKLPLEILLMVFNSIAFQNSAIDWVRDHRLHHKYSDTDADPHNASRGFFYSHVGWLLVRKHPEVKKRGKELNMSDIYNNPVLRFQKKYAIPFIGAVCFALPTMIPVYFWGETWSNAWHITMLRYIMNLNVTFLVNSAAHIWGNKPYDAKILPAQNVAVSVATGGEGFHNYHHVFPWDYRAAELGNNSLNLTTKFIDLFAAIGWAYDLKTVSEDMIKQRIKRTGDGTDLWGHEQNCDEVWDVKDKSS
Palmitic acid [1]; SPV053
  (Z)-11-hexadecenoic acid titer: ~5.96 mg/L
Palmitic acid [1]; SPV053, methyl myristate substrate
  activity on myristoyl-CoA: some activity on myristoyl-CoA
Palmitic acid [1]; SPV053, palmitic acid supplemented
  (Z)-11/(Z)-9 hexadecenoic acid ratio: 1.4
Palmitic acid [1]; [3]
  (Z)-9-hexadecenoic acid in C16-fatty acid composition: ~30.91%
  (Z)-11-hexadecenoic acid in C16-fatty acid composition: ~19.1%
  hexadecanoic acid in C16-fatty acid composition: approximately 50.0%
Palmitic acid [1]; [4]
  (Z)-9-hexadecenoic acid in C16-fatty acid composition: 17.5%
  (Z)-11-hexadecenoic acid in C16-fatty acid composition: 24.4%
  hexadecanoic acid in C16-fatty acid composition: 58.1%
Palmitic acid [1]; SPV053, without palmitic acid supplementation
  (Z)-11/(Z)-9 hexadecenoic acid ratio: 0.6
Palmitic acid [2]
  Z11-hexadecenoic acid production: ~100 mg/L
S. cerevisiae ΔOLE1; minimal medium (CM-Ura glucose) agar plate
  rescue of ΔOLE1 growth without UFA: conferred growth without UFA
S. cerevisiae ΔOLE1; rich medium (YPD) agar plate
  rescue of ΔOLE1 growth without UFA: conferred growth without UFA
